Assay results from PMC7763993, “Depletion of Boric Acid and Cobalt from Cultivation Media: Impact on Recombinant Protein Production with Komagataella phaffii” (Bioengineering, 2020).

Substrate: CCn1c(=NN=c2sc3cc(S(=O)(=O)O)ccc3n2CC)sc2cc(S(=O)(=O)O)ccc21
Assay: purified protein
Assay type: biochemical, Armoracia rusticana
Conditions: H2O2 co-substrate, 50 mM phosphate citrate pH 5, 30 °C, 0.05-7 mM ABTS, enzyme from cultivation F5 (glass, with Co and boric acid)

B1: horseradish peroxidase isoenzyme A2A (HRP) (Armoracia rusticana) (protein)
chain: QLNATFYSGTCPNASAIVRSTIQQAFQSDTRIGASLIRLHFHDCFVDGCDASILLDDSGSIQSEKNAGPNANSARGFNVVDNIKTALENTCPGVVSCSDILALASEASVSLTGGPSWTVLLGRRDSLTANLAGANSAIPSPFEGLSNITSKFSAVGLNTNDLVALSGAHTFGRARCGVFNNRLFNFSGTNGPDPTLNSTLLSSLQQLCPQNGSASTITNLDLSTPDAFDNNYFANLQSNNGLLQSDQELFSTLGSATIAVVTSFASNQTLFFQAFAQSMINMGNISPLTGSNGEIRLDCKKVDGS
notes: secreted from K. phaffii BSYBG11 MutS, codon-optimized gene; glycosylated, negative AIEX flow-through; monomeric, 2 calcium, heme
- Km: 2110 ± 350 µM
